Here are results for one molecule from article PMC10926635, “Membrane-associated RING-CH 7 inhibits stem-like capacities of bladder cancer cells by interacting with nucleotide-binding oligomerization domain containing 1” (Cell & Bioscience, 2024).

The target in the experiment is T1, HA-NOD1, purified protein (UniProt Q9Y239-1 1-953).
T1 construct: also called purified NOD1 protein; source: purified by Hangzhou Jingjie Biotechnology Co., Ltd
T1 sequence (looked up): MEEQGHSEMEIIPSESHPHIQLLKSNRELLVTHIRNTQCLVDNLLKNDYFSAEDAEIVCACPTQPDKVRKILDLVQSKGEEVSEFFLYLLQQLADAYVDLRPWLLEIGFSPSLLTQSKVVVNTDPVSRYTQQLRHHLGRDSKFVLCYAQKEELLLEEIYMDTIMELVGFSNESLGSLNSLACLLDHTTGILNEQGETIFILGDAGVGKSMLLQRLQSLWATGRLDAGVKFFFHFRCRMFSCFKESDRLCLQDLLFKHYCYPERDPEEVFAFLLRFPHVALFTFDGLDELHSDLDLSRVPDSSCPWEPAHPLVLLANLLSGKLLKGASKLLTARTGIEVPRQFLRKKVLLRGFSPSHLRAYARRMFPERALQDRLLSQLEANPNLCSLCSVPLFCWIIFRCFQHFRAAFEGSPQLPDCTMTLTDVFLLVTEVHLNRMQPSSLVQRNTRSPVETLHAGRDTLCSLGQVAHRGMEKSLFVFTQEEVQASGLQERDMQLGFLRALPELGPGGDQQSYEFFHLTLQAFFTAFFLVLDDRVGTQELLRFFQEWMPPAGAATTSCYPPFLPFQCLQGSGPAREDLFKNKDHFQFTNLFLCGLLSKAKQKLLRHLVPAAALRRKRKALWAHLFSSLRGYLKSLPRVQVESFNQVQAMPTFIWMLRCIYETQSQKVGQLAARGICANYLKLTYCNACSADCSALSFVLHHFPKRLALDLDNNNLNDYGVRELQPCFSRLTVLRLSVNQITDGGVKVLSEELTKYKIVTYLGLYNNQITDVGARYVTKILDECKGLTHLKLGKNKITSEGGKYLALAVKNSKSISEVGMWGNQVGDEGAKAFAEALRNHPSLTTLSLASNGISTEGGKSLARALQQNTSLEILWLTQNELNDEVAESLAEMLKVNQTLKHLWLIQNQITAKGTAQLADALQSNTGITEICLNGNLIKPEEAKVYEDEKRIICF
Kind of experiment: co-IP; purified Flag-MARCH7 and HA-NOD1 proteins mixed; co-IP as for the cell lysates. As to conditions: both partners purified.

B1: Flag-MARCH7-WT, purified protein (enzyme, UniProt Q9H992-1 1-704, looked up)
chain: MESKPSRIPRRISVQPSSSLSARMMSGSRGSSLNDTYHSRDSSFRLDSEYQSTSASASASPFQSAWYSESEITQGARSRSQNQQRDHDSKRPKLSCTNCTTSAGRNVGNGLNTLSDSSWRHSQVPRSSSMVLGSFGTDLMRERRDLERRTDSSISNLMDYSHRSGDFTTSSYVQDRVPSYSQGARPKENSMSTLQLNTSSTNHQLPSEHQTILSSRDSRNSLRSNFSSRESESSRSNTQPGFSYSSSRDEAPIISNSERVVSSQRPFQESSDNEGRRTTRRLLSRIASSMSSTFFSRRSSQDSLNTRSLNSENSYVSPRILTASQSRSNVPSASEVPDNRASEASQGFRFLRRRWGLSSLSHNHSSESDSENFNQESEGRNTGPWLSSSLRNRCTPLFSRRRREGRDESSRIPTSDTSSRSHIFRRESNEVVHLEAQNDPLGAAANRPQASAASSSATTGGSTSDSAQGGRNTGISGILPGSLFRFAVPPALGSNLTDNVMITVDIIPSGWNSADGKSDKTKSAPSRDPERLQKIKESLLLEDSEEEEGDLCRICQMAAASSSNLLIEPCKCTGSLQYVHQDCMKKWLQAKINSGSSLEAVTTCELCKEKLELNLEDFDIHELHRAHANEQAEYEFISSGLYLVVLLHLCEQSFSDMMGNTNEPSTRVRFINLARTLQAHMEDLETSEDDSEEDGDHNRTFDIA
notes: Membrane-associated RING-CH 7 (MARCH7); also called purified MARCH7 protein; source: purified by Hangzhou Jingjie Biotechnology Co., Ltd
For the molecule B1, the binding result was “binds”.
